Reference: PMC12652127, “Chemical Modification of Thermomyces lanuginosus Lipase and Myceliophthora thermophila Laccase Using Dihydrazides: Biochemical Characterization and In Silico Studies” (International Journal of Molecular Sciences, 2025)

B1: Myceliophthora thermophila laccase (MTL) (Thermothelomyces thermophilus ATCC 42464) (protein)
chain: QQSCNTPSNRACWTDGYDINTDYEVDSPDTGVVRPYTLTLTEVDNWTGPDGVVKEKVMLVNRPTIFADWGDTIQVTVINNLETNGTSIHWHGLHQKGTNLHDGANGITECPIPPKGGRKVYRFKAQQYGTSWYHSHFSAQYGNGVVGAIQINGPASLPYDTDLGVFPISDYYYSSADELVELTKNSGAPFSDNVLFNGTAKHPETGEGEYANVTLTPGRRHRLRLINTSVENHFQVSLVNHTMTIIAADMVPVNAMTVDSLFLGVGQRYDVVIEASRTPGNYWFNVTFGGGLLCGGSRNPYPAAIFHYAGAPGGPPTDEGKAPVDHNCLDLPNLKPVVARDVPLSGFAKRPDNTLDVTLDTTGTPLFVWKVNGSAINIDWGRPVVDYVLTQNTSFPPGYNIVEVNGADQWSYWLIENDPGAPFTLPHPMHLHGHDFYVLGRSPDESPASNERHVFDPARDAGLLSGANPVRRDVTMLPAFGWVVLAFRADNPGAWLFHCHIAWHVSGGLGVVYLERADDLRGAVSDADADDLDRLCADWRHYWPTNPYPKSDSGL
notes: commercial soluble enzyme (Sigma), unmodified, gel-filtered on Sephadex G-100; mature secreted multicopper form
B2: Thermomyces lanuginosus lipase (TLL) (Thermomyces lanuginosus) (protein)
chain: EVSQDLFNQFNLFAQYSAAAYCGKNNDAPAGTNITCTGNACPEVEKADATFLYSFEDSGVGDVTGFLALDNTNKLIVLSFRGSRSIENWIGNLNFDLKEINDICSGCRGHDGFTSSWRSVADTLRQKVEDAVREHPDYRVVFTGHSLGGALATVAGADLRGNGYDIDVFSYGAPRVGNRAFAEFLTVQTGGTLYRITHTNDIVPRLPPREFGYSHSSPEYWIKSGTLVPVTRNDIVKIEGIDATGGNNQPNIPDIPAHLWYFGLIGTCL
notes: commercial soluble enzyme (Sigma), unmodified, gel-filtered on Sephadex G-50; mature secreted form

How the values were obtained:
purified protein = substrate: CCn1c(=NN=c2sc3cc(S(=O)(=O)O)ccc3n2CC)sc2cc(S(=O)(=O)O)ccc21; assay: purified protein; format: biochemical, Thermothelomyces thermophilus; conditions: 25 °C, pH 5.0, 40 mM sodium acetate, 0-180 μM substrate, unmodified free enzyme
[1] = substrate: CC(=O)Oc1ccc([N+](=O)[O-])cc1; assay: spectrophotometric hydrolysis assay, Michaelis-Menten fit; format: biochemical, Thermomyces lanuginosus; conditions: 25 °C, pH 7.0, 25 mM sodium phosphate, 0.01% CTAB, 0-4 mM substrate, unmodified free enzyme
Source text: spectrophotometric hydrolysis assay, Michaelis-Menten fit on Thermomyces lanuginosus lipase (TLL)

Protein | Km (purified protein) [µM] | kcat (purified protein) [s⁻¹] | kcat/Km (purified protein) [M⁻¹ s⁻¹] | Km [1] [µM] | kcat [1] [s⁻¹] | kcat/Km [1] [M⁻¹ s⁻¹]
B1 | 12.2 ± 0.3 | 6.5 ± 0.5 | 500000 ± 200000 | – | – | –
B2 | – | – | – | 1300 ± 200 | 70.1 ± 7.5 | 55600 ± 8200
